Measurements published in publication PMC7311918, “Structures of Human Antibodies Bound to SARS-CoV-2 Spike Reveal Common Epitopes and Recurrent Features of Antibodies” (Cell, 2020).
Where “and” joins values, the source holds several entries; their conditions need not be identical. Equal values may be shown once.

Target: T1, SARS-CoV-2 S 2P trimer (S ectodomain, residues 16-1206) (SARS-CoV-2, early isolate GenBank …, UniProt P0DTC2, stabilised)
T1 construct: also called SARS-CoV-2 S protein; SARS-CoV-2 S trimer
Assay: cryo-EM structure
Conditions: both partners purified

B1: C105 Fab (Fab, V domains shown)
VH: QVQLVESGGGLIQPGGSLRLSCAASGFTVSSNYMSWVRQAPGKGLEWVSVIYSGGSTYYADSVKGRFTISRDNSKNTLYLQMNSLRAEDTAVYYCARGEGWELPYDYWGQGTLVTVSS
VL: QSALTQPPSASGSPGQSVTISCTGTSSDVGGYKYVSWYQQHPGKAPKLMIYEVSKRPSGVPDRFSGSKSGNTASLTVSGLQAEDEADYYCSSYEGSNNFVVFGGGTKLTVL
notes: also called mAb C105
**Q.** With B1 as the binder, how does the “stoichiometry N” value read?
**A.** 2 Fabs per S trimer and 3 Fabs per S trimer
